Assay [1] addresses Myc-tagged Rhinolophus affinis ISG15 S77C (Rhinolophus affinis). The assay is described as follows: cross-linking.
Assay [2] addresses Myc-tagged wild-type Mops condylurus ISG15 (Mops condylurus). Description: cross-linking.

As for “Myc-tagged Rhinolophus affinis ISG15 S77C (natural protein)”, in assay [1], the stoichiometry N came out at 2.

In turn, “Myc-tagged wild-type Mops condylurus ISG15 (natural protein)” registered a stoichiometry N in assay [2] of 2.

For orientation: stoichiometry N means a count of units in the complex or per binding partner.

The values above are taken from PMC11821529.
